Columns and labels:
Assay in all cases: BLI
[1] = molecular target: TPX2 aa1-178Δ123 (TPX2 1-178 with the KKLK motif mutated) (Xenopus laevis) (UniProt Q6NUF4)
[2] = molecular target: double-mutant TPX2 (DM-TPX2) (Xenopus laevis) (UniProt Q6NUF4)
[3] = molecular target: triple-mutant TPX2 (TM-TPX2) (Xenopus laevis) (UniProt Q6NUF4)
[4] = molecular target: TPX2 C-terminus (a.a. 480-716) (Xenopus laevis) (UniProt Q6NUF4)
TPX2 C-terminus (a.a. 480-716) (Xenopus laevis), sequence (Q6NUF4 480-716): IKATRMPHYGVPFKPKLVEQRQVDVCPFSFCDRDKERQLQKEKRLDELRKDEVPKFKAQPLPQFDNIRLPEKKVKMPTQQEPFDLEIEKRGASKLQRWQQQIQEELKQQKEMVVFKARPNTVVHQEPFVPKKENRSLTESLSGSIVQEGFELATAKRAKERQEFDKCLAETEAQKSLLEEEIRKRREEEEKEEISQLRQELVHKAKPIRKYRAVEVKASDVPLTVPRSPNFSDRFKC

importin-αΔIBB (importin-α without the importin-β binding domain) (domain or fragment), sequence (P52170 71-522, stated change not applied): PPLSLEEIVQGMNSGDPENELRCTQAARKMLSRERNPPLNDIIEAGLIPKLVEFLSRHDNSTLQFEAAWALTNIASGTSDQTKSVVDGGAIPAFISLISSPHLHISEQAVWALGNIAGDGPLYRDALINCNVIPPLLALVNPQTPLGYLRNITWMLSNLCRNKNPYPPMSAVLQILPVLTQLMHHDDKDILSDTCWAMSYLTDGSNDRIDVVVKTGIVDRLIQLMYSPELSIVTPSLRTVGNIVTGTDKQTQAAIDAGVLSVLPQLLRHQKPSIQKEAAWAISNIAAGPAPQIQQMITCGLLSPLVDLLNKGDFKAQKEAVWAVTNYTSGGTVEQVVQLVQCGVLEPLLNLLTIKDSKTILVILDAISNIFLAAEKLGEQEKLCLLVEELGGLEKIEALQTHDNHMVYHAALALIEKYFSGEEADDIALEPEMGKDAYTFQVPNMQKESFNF
importin-β, sequence (P52297 whole entry): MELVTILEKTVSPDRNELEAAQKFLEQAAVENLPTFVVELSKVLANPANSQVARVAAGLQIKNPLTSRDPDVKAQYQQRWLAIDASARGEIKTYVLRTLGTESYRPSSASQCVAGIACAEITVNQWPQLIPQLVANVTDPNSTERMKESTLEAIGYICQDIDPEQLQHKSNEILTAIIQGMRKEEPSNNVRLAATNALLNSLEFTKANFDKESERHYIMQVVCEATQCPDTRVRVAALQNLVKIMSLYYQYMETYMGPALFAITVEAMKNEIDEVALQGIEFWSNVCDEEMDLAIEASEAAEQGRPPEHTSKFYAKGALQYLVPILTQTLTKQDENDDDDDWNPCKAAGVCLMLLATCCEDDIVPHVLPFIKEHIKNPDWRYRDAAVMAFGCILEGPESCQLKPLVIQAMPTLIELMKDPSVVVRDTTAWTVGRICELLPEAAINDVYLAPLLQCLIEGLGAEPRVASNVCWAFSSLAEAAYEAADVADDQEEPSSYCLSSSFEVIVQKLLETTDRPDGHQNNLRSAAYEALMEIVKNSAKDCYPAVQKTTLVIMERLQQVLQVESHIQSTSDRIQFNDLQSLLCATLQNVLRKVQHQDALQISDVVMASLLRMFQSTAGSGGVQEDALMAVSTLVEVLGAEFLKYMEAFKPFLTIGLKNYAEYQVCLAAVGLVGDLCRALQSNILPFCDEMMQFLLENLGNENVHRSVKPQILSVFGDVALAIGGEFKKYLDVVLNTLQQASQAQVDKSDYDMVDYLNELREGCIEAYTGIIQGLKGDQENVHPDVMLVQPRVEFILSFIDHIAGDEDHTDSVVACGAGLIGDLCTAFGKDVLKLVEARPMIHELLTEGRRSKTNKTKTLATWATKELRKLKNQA

importin-αΔIBB (importin-α without the importin-β binding domain) (domain or fragment)
fold loss of binding against the wild type 1-178 TPX2 construct [1]: 10 fold
Kd [2]: 45 nM
Kd [3]: 410 nM

importin-β (from UniProt P52297 1-876) (natural protein)
Kd [4]: > 4000 nM

From doi:10.1101/2020.09.01.276469
